# Values quoted from earlier work in paper PMC9776395.
# Target: His193 (UniProt position 193, WVLGEHGDSSV)
# Experiment: kinetics
# Conditions: Enzyme-NADH complex binding pyruvate (pyruvate reduction direction)
substance,measurement,value
"L-lactate dehydrogenase A chain (LDHA, M subunit, LDH5 homotetramer) (Homo sapiens)",pKa,7.31
